Assay [1] addresses T1, purified CEACAM5 mutant N70,81A (human, UniProt P06731-1 35-685, N70,81A | N70,81A).
T1 sequence (looked up): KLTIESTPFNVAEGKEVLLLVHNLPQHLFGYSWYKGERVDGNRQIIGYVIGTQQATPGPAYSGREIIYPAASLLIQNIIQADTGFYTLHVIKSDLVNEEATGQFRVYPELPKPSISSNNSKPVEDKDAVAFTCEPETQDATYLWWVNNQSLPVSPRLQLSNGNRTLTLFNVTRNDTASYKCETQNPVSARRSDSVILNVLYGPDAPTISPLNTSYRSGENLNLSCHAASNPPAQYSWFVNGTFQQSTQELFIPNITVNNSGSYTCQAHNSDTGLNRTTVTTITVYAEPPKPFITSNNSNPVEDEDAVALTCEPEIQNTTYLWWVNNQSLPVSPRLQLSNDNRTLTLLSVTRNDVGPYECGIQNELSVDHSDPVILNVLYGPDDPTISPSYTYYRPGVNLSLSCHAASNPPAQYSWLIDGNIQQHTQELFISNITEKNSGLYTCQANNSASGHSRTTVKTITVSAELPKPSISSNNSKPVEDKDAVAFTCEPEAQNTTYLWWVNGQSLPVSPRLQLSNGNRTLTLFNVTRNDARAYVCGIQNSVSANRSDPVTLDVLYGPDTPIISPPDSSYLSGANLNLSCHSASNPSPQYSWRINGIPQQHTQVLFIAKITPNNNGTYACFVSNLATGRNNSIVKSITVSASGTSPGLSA
Put plainly: SPR. (SPR reads the build-up and loss of mass on a sensor chip optically.)

Assay [2] has as its target T2, purified wild type CEACAM5 (human, UniProt P06731-1 35-685).
T2 sequence (looked up): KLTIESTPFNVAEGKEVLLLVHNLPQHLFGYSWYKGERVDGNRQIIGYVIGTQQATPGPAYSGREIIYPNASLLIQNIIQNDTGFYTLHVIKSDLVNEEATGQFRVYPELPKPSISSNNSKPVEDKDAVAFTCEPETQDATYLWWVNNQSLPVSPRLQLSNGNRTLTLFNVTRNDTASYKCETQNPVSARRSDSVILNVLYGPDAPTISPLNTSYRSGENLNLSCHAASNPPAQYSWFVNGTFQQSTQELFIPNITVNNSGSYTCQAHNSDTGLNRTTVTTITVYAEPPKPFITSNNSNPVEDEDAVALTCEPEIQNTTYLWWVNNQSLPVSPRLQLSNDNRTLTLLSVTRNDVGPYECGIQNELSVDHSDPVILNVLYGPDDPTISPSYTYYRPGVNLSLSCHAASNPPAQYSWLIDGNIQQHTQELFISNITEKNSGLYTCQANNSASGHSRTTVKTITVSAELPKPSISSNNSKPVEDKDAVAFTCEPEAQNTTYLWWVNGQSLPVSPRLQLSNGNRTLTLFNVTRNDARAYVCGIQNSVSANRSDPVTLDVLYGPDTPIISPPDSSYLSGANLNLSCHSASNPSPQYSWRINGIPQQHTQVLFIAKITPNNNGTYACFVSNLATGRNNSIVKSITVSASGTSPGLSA
Put plainly: SPR.

B1: purified extracellular domain of CD8α (domain or fragment)
chain: not shown
The Kd is the constant that tells how readily two partners part at equilibrium. For orientation: koff means the first-order rate constant of dissociation. A word on the kon: it is the rate constant with which the complex forms. A high value points to fast association. B1: in assay [1], the Kd was found to be 16 µM, the koff stood at 0.0047 s⁻¹ and the on-rate (kon) was found to be 290 M⁻¹ s⁻¹. In assay [2], binding was put at a Kd of 0.022 µM, the koff is 0.00056 s⁻¹ and the kon stood at 26000 M⁻¹ s⁻¹.

For the origin of these results see article PMC3981948 (Mucosal immunology, 2013).
